Source: patent publication US20240287189A1 (SPARX BIOSCIENCE, published 2024)

How the values were obtained:
[1] = target: PDL1 on PDL1 aAPC/CHOK1 cells (UniProt Q9NZQ7 19-290, limits assumed); experiment: cell-based or functional assay
[2] = target: T1, PDL1 expressed on MDA MB-231 human breast cancer cells (human, UniProt Q9NZQ7 19-290); experiment: flow cytometry on MDA MB-231 cells, anti-human IgG Fc secondary antibody
T1 construct: whole, on cells; also called MDA MB-231 cells

[3] = target: T2, human PD-L1 (recombinant protein, coated and in solution in the phage ELISA) (human, UniProt Q9NZQ7 19-239); experiment: competitive phage ELISA, ratio to 12A4 parent clone
T2 construct: It is probably the same Met1-Thr239 extracellular segment that was used for selection; also called CD274; B7 homolog 1

[4] = target: T2, human PD-L1 (recombinant protein, …); experiment: competitive phage ELISA, Fab on phage, soluble PD-L1 against coated PD-L1

Row | Binder | EC50, luminescent signal in PDL1/PD1 blockage bioassay [1] | Kd [2] | Improvement from 12A4 Parent Clone [3] | Kd [4]
1 | anti-PDL1 monoclonal antibody 12A4bad (antibody, V domains shown, also called PDL1 antibody 12A4bad) VH: QVQLVQSGAEVKKPGSSVKVSCKTSGDTFSTYAISWVRQAPGQGLEWMGGIIPLFGKAHYAQKFQGRVTITADESTSTAYMELSSLRSEDTAVYFCARKFHFVRGSPFGMDVWGQGTTVTVSS VL: EIVLTQSPATLSLSPGERATLSCRASQSVSSYLAWYQQKPGQAPRLLIYDASNRAPGIPARFSGSGSGTDFTLTISSLEPEDFAVYYCQQRSNWPTFGQGTKVEIK | 0.344 nM | 0.0778 nM |  | 
2 | 12A4bad Fab displayed on phage (Fab, V domains shown) VH: QVQLVQSGAEVKKPGSSVKVSCKTSGDTFSTYAISWVRQAPGQGLEWMGGIIPLFGKAHYAQKFQGRVTITADESTSTAYMELSSLRSEDTAVYFCARKFHFVRGSPFGMDVWGQGTTVTVSS VL: EIVLTQSPATLSLSPGERATLSCRASQSVSSYLAWYQQKPGQAPRLLIYDASNRAPGIPARFSGSGSGTDFTLTISSLEPEDFAVYYCQQRSNWPTFGQGTKVEIK |  |  | 7.5 fold | 1.5 nM
3 | 12A4ad Fab displayed on phage (Fab, V domains shown) VH: QVQLVQSGAEVKKPGSSVKVSCKTSGDTFSTYAISWVRQAPGQGLEWMGGIIPLFGKAHYAQKFQGRVTITADESTSTAYMELSSLRSEDTAVYFCARKFHFVSGSPFGMDVWGQGTTVTVSS VL: EIVLTQSPATLSLSPGERATLSCRASQSVSSYLAWYQQKPGQAPRLLIYDASNRAPGIPARFSGSGSGTDFTLTISSLEPEDFAVYYCQQRSNWPTFGQGTKVEIK |  |  |  | 5 nM
4 | 12A4bd Fab displayed on phage (Fab, V domains shown) VH: QVQLVQSGAEVKKPGSSVKVSCKTSGDTFSTYAISWVRQAPGQGLEWMGGIIPLFGKAHYAQKFQGRVTITADESTSTAYMELSSLRSEDTAVYFCARKFHFVRGSPFGMDVWGQGTTVTVSS VL: not shown |  |  | 6.3 fold | 1.8 nM
5 | 12A4b Fab displayed on phage (Fab, V domains shown) VH: QVQLVQSGAEVKKPGSSVKVSCKTSGDTFSTYAISWVRQAPGQGLEWMGGIIPIFGKAHYAQKFQGRVTITADESTSTAYMELSSLRSEDTAVYFCARKFHFVRGSPFGMDVWGQGTTVTVSS VL: not shown |  |  | 3.3 fold | 
6 | 12A4a Fab displayed on phage (Fab, V domains shown) VH: QVQLVQSGAEVKKPGSSVKVSCKTSGDTFSTYAISWVRQAPGQGLEWMGGIIPIFGKAHYAQKFQGRVTITADESTSTAYMELSSLRSEDTAVYFCARKFHFVSGSPFGMDVWGQGTTVTVSS VL: EIVLTQSPATLSLSPGERATLSCRASQSVSSYLAWYQQKPGQAPRLLIYDASNRAPGIPARFSGSGSGTDFTLTISSLEPEDFAVYYCQQRSNWPTFGQGTKVEIK |  |  | 1.3 fold | 8.3 nM
